This passage reports Kd results from PMC8427768.

This data set addresses T1, Elk1 ETS domain (human, UniProt P19419 1-93).
T1 sequence: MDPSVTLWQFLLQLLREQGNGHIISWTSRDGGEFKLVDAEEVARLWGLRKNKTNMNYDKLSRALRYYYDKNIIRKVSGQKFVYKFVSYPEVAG
Nature of the data set: SPR. On the technique in general: SPR reads the build-up and loss of mass on a sensor chip optically.

B1: SC1 (dsDNA)
DNA 1: CGGCCAAGCCGGAAGTGAGTGCC
DNA 2: GGCACTCACTTCCGGCTTGGCCG
In turn, B1 registered a Kd of 0.06 ± 0.01 nM.

B2: E74 (dsDNA)
DNA 1: CTGAATAACCGGAAGTAACTCATC
DNA 2: GATGAGTTACTTCCGGTTATTCAG
Turning to B2, the Kd came out at 0.02 ± 0.01 nM. This Kd is about 3-fold lower than that of the molecule before.

As a reminder, the Kd is the concentration at which binding is half-saturated. A lower Kd goes with higher affinity.
